Series [1] deals with T1, UHRF1 SRA domain (human, UniProt Q96T88 408-643).
T1 sequence: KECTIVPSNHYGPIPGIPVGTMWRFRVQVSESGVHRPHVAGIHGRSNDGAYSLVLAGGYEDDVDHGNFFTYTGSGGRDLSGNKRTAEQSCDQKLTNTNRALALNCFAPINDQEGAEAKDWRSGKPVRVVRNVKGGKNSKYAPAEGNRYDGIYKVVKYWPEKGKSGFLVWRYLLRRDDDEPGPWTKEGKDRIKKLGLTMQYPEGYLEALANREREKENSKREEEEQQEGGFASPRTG
In words: intrinsic Trp fluorescence titration; 1 uM SRA; 20 mM PBS pH 7.5, 50 mM NaCl, 2.5 mM TCEP, 0.05% PEG 20000, 20 C; duplex 1 uM in anisotropy. The note with it: protein: recombinant; 12 bp duplex.

Series [2] has as its target T1, UHRF1 SRA domain. The description is as above. The note with it: protein: recombinant; 12 bp duplex. The source holds these as a separate data set.

B1: NM duplex, unlabelled (dsDNA)
DNA 1: GGGCCCGCAGGG
DNA 2: CCCTGCGGGCCC
In the case of B1, in the series with UHRF1 SRA domain [1], the Ka was 1.43 ± 0.07 10^6 M-1.

B2: HM duplex, unlabelled (dsDNA)
DNA 1: GGGCCCGCAGGG
DNA 2: CCCTGCGGGCCC
modifications: 5mC at position 6 of strand 1
Take B2: in the series with UHRF1 SRA domain [2], the Ka was 8.1 ± 0.2 10^6 M-1.

Source of the values: publication PMC12448856, “Decoding the base flipping mechanism of the SET- and RING-associated (SRA) domain of the epigenetic UHRF1 protein”.
